Assay results from IntAct's records for PubMed 24981741.

B1: Protein LYRIC (Mus musculus), Q80WJ7 (parent)
chain: MAARSWQDELAQQAEEGSARLRELLSVGLGFLRTELGLDLGLEPKRYPGWVILVGTGALGLLLLFLLGYGWAAACAGARKKRRSPPRKREEAAPPTPAPDDLAQLKNLRSEEQKKKNRKKLPEKPKPNGRTVEVPEDEVVRNPRSITAKQAPETDKKNEKSKKNKKKSKSDAKAVQNSSRHDGKEVDEGAWETKISHREKRQQRKRDKVLTDSGSLDSTIPGIENIITVTTEQLTTASFPVGSKKNKGDSHLNVQVSNFKSGKGDSTLQVSSRLNENLTVNGGGWSEKSVKLSSQLSEEKWNSVPPASAGKRKTEPSAWTQDTGDTNANGKDWGRNWSDRSIFSGIGSTAEPVSQSTTSDYQWDVSRNQPYIDDEWSGLNGLSSADPSSDWNAPAEEWGNWVDEDRASLLKSQEPISNDQKVSDDDKEKGEGALPTGKSKKKKKKKKKQGEDNSHTQDTEDLEKDTREELPVNTSKARPKQEKACSLKTMSTSDPAEVLIKNSQPVKTLPPAISAEPSITLSKGDSDNSSSQVPPMLQDTDKPKSNAKQNSVPPSQTKSETNWESPKQIKKKKKARRET
partner: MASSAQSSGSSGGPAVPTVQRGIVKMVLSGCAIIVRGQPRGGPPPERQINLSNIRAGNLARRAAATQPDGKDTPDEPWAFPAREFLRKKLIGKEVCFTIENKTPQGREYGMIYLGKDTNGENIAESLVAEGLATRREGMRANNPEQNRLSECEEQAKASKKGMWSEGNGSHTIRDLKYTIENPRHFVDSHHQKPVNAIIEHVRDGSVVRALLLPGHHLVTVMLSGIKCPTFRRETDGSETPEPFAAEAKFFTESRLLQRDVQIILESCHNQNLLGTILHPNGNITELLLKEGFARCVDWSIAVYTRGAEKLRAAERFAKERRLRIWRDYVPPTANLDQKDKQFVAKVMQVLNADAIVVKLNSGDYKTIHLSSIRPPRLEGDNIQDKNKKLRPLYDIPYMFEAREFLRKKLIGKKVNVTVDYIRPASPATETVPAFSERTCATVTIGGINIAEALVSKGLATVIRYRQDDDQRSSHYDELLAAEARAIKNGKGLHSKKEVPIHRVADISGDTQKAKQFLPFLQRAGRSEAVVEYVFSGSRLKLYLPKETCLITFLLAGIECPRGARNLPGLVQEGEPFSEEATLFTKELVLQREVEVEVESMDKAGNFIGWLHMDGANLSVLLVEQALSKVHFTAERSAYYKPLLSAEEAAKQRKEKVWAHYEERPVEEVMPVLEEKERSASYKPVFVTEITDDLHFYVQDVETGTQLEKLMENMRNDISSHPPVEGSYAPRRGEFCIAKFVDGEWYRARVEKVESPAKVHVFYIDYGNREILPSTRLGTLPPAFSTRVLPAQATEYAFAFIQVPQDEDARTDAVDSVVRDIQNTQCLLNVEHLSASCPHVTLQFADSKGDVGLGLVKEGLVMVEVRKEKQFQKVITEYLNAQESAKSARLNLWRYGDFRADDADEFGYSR

Variants of: B1
Settings: with snd1_mouse Snd1, Q78PY7

Row | effect of a mutation on the interaction | Variant
1 | disrupting interaction strength | MAARSWQDELAQQAEEGSARLRELLSVGLGFLRTELGLDLGLEPKRYPGWVILVGTGALGLLLLFLLGYGWAAACAGARKKRRSPPRKREEAAPPTPAPDDLAQLKNLRSEEQKKKNRKKLPEKPKPNGRTVEVPEDEVVRNPRSITAKQAPETDKKNEKSKKNKKKSKSDAKAVQNSSRHDGKEVDEGAWETKISHREKRQQRKRDKVLTDSGSLDSTIPGIENIITVTTEQLTTASFPVGSKKNKGDSHLNVQVSNFKSGKGDSTLQVSSRLNENLTVNGGGWSEKSVKLSSQLSEEKWNSVPPASAGKRKTEPSAWTQDTGDTNANGKDWGRNWSDRSIFSGIGSTAEPVSQSTTSDYQWDVSRNQPYIDDEWSGLNGLSSADPSSDWNAPARRDGNWVDEDRASLLKSQEPISNDQKVSDDDKEKGEGALPTGKSKKKKKKKKKQGEDNSHTQDTEDLEKDTREELPVNTSKARPKQEKACSLKTMSTSDPAEVLIKNSQPVKTLPPAISAEPSITLSKGDSDNSSSQVPPMLQDTDKPKSNAKQNSVPPSQTKSETNWESPKQIKKKKKARRET [E396R;E397R;W398D]
2 | disrupting interaction strength | MAARSWQDELAQQAEEGSARLRELLSVGLGFLRTELGLDLGLEPKRYPGWVILVGTGALGLLLLFLLGYGWAAACAGARKKRRSPPRKREEAAPPTPAPDDLAQLKNLRSEEQKKKNRKKLPEKPKPNGRTVEVPEDEVVRNPRSITAKQAPETDKKNEKSKKNKKKSKSDAKAVQNSSRHDGKEVDEGAWETKISHREKRQQRKRDKVLTDSGSLDSTIPGIENIITVTTEQLTTASFPVGSKKNKGDSHLNVQVSNFKSGKGDSTLQVSSRLNENLTVNGGGWSEKSVKLSSQLSEEKWNSVPPASAGKRKTEPSAWTQDTGDTNANGKDWGRNWSDRSIFSGIGSTAEPVSQSTTSDYQWDVSRNQPYIDDEWSGLNGLSSADPSSDWNAPAEEDGNWVDEDRASLLKSQEPISNDQKVSDDDKEKGEGALPTGKSKKKKKKKKKQGEDNSHTQDTEDLEKDTREELPVNTSKARPKQEKACSLKTMSTSDPAEVLIKNSQPVKTLPPAISAEPSITLSKGDSDNSSSQVPPMLQDTDKPKSNAKQNSVPPSQTKSETNWESPKQIKKKKKARRET [W398D]

The next lines start with the variant.

Row | Variant | effect of a mutation on the interaction
3 | MAARSWQDELAQQAEEGSARLRELLSVGLGFLRTELGLDLGLEPKRYPGWVILVGTGALGLLLLFLLGYGWAAACAGARKKRRSPPRKREEAAPPTPAPDDLAQLKNLRSEEQKKKNRKKLPEKPKPNGRTVEVPEDEVVRNPRSITAKQAPETDKKNEKSKKNKKKSKSDAKAVQNSSRHDGKEVDEGAWETKISHREKRQQRKRDKVLTDSGSLDSTIPGIENIITVTTEQLTTASFPVGSKKNKGDSHLNVQVSNFKSGKGDSTLQVSSRLNENLTVNGGGWSEKSVKLSSQLSEEKWNSVPPASAGKRKTEPSAWTQDTGDTNANGKDWGRNWSDRSIFSGIGSTAEPVSQSTTSDYQWDVSRNQPYIDDEWSGLNGLSSARPSSRDNAPAEEWGNWVDEDRASLLKSQEPISNDQKVSDDDKEKGEGALPTGKSKKKKKKKKKQGEDNSHTQDTEDLEKDTREELPVNTSKARPKQEKACSLKTMSTSDPAEVLIKNSQPVKTLPPAISAEPSITLSKGDSDNSSSQVPPMLQDTDKPKSNAKQNSVPPSQTKSETNWESPKQIKKKKKARRET [D386R;D390R;W391D] | disrupting interaction strength
4 | MAARSWQDELAQQAEEGSARLRELLSVGLGFLRTELGLDLGLEPKRYPGWVILVGTGALGLLLLFLLGYGWAAACAGARKKRRSPPRKREEAAPPTPAPDDLAQLKNLRSEEQKKKNRKKLPEKPKPNGRTVEVPEDEVVRNPRSITAKQAPETDKKNEKSKKNKKKSKSDAKAVQNSSRHDGKEVDEGAWETKISHREKRQQRKRDKVLTDSGSLDSTIPGIENIITVTTEQLTTASFPVGSKKNKGDSHLNVQVSNFKSGKGDSTLQVSSRLNENLTVNGGGWSEKSVKLSSQLSEEKWNSVPPASAGKRKTEPSAWTQDTGDTNANGKDWGRNWSDRSIFSGIGSTAEPVSQSTTSDYQWDVSRNQPYIDDEWSGLNGLSSADPSSDDNAPAEEWGNWVDEDRASLLKSQEPISNDQKVSDDDKEKGEGALPTGKSKKKKKKKKKQGEDNSHTQDTEDLEKDTREELPVNTSKARPKQEKACSLKTMSTSDPAEVLIKNSQPVKTLPPAISAEPSITLSKGDSDNSSSQVPPMLQDTDKPKSNAKQNSVPPSQTKSETNWESPKQIKKKKKARRET [W391D] | disrupting interaction strength
